Measured values as given in patent US20230074436A1 (DENALI THERAPEUTICS, published 2023).
No end group written: not given here. *: point of attachment. Biotin = O=C1N[C@H]2[C@H](CS[C@H]2CCCCC(=O)*)N1

Legend:
[1] = target: T1, asyn_113-127_117A (human); experiment: Ala-scan peptide ELISA, row G, run 1
T1 construct: substitution is already in the entry; also called pep6
T1 peptide: Biotin-LEDMAVDPDNEAYEM

[2] = target: T2, asyn_113-127_125A (human); experiment: Ala-scan peptide ELISA, row G, run 1
T2 construct: substitution is already in the entry; also called pep15
T2 peptide: Biotin-LEDMPVDPDNEAAEM

[3] = target: T3, asyn_113-127_127A (human); experiment: Ala-scan peptide ELISA, row G, run 1
T3 construct: substitution is already in the entry; also called pep17
T3 peptide: Biotin-LEDMPVDPDNEAYEA

[4] = target: T4, asyn_113-127_124P (human); experiment: Ala-scan peptide ELISA, row G, run 1
T4 construct: substitution is already in the entry; also called pep14
T4 peptide: Biotin-LEDMPVDPDNEPYEM

[5] = target: T5, asyn_113-127_115A (human); experiment: Ala-scan peptide ELISA, row G, run 1
T5 construct: substitution is already in the entry; also called pep4
T5 peptide: Biotin-LEAMPVDPDNEAYEM

[6] = target: T6, asyn_113-127_121A (human); experiment: Ala-scan peptide ELISA, row G, run 1
T6 construct: substitution is already in the entry; also called pep10
T6 peptide: Biotin-LEDMPVDPANEAYEM

[7] = target: T7, asyn_113-127_122A (human); experiment: Ala-scan peptide ELISA, row G, run 1
T7 construct: substitution is already in the entry; also called pep11
T7 peptide: Biotin-LEDMPVDPDAEAYEM

[8] = target: T8, asyn_113-127_120A (human); experiment: Ala-scan peptide ELISA, row G, run 1
T8 construct: substitution is already in the entry; also called pep9
T8 peptide: Biotin-LEDMPVDADNEAYEM

[9] = target: T9, asyn_113-127_126A (human); experiment: Ala-scan peptide ELISA, row G, run 1
T9 construct: substitution is already in the entry; also called pep16
T9 peptide: Biotin-LEDMPVDPDNEAYAM

[10] = target: T10, asyn_113-127_114A (human); experiment: Ala-scan peptide ELISA, row G, run 1
T10 construct: substitution is already in the entry; also called pep3
T10 peptide: Biotin-LADMPVDPDNEAYEM

[11] = target: T11, asyn_113-127_119A (human); experiment: Ala-scan peptide ELISA, row G, run 1
T11 construct: substitution is already in the entry; also called pep8
T11 peptide: Biotin-LEDMPVAPDNEAYEM

[12] = target: T12, asyn_113-127_113A (human); experiment: Ala-scan peptide ELISA, row G, run 1
T12 construct: substitution is already in the entry; also called pep2
T12 peptide: Biotin-AEDMPVDPDNEAYEM

[13] = target: T13, biotinylated human alpha-synuclein (human, UniProt P37840 1-140); experiment: Ala-scan peptide ELISA, row G, run 1
[14] = target: T14, asyn_113-127_118A (human); experiment: Ala-scan peptide ELISA, row G, run 1
T14 construct: substitution is already in the entry; also called pep7
T14 peptide: Biotin-LEDMPADPDNEAYEM

[15] = target: T15, asyn_113-127_124G (human); experiment: Ala-scan peptide ELISA, row G, run 1
T15 construct: substitution is already in the entry; also called pep13
T15 peptide: Biotin-LEDMPVDPDNEGYEM

[16] = target: T16, asyn_113-127_123A (human); experiment: Ala-scan peptide ELISA, row G, run 1
T16 construct: substitution is already in the entry; also called pep12
T16 peptide: Biotin-LEDMPVDPDNAAYEM

[17] = target: T17, asyn_113-127_116A (human); experiment: Ala-scan peptide ELISA, row G, run 1
T17 construct: substitution is already in the entry; also called pep5
T17 peptide: Biotin-LEDAPVDPDNEAYEM

[18] = target: T18, asyn_113-127 (human); experiment: Ala-scan peptide ELISA, row G, run 1
T18 construct: also called pep1
T18 peptide: Biotin-LEDMPVDPDNEAYEM

[19] = target: T2, asyn_113-127_125A; experiment: Ala-scan peptide ELISA, row G, run 2
[20] = target: T4, asyn_113-127_124P; experiment: Ala-scan peptide ELISA, row G, run 2
[21] = target: T5, asyn_113-127_115A; experiment: Ala-scan peptide ELISA, row G, run 2
[22] = target: T6, asyn_113-127_121A; experiment: Ala-scan peptide ELISA, row G, run 2
[23] = target: T8, asyn_113-127_120A; experiment: Ala-scan peptide ELISA, row G, run 2
[24] = target: T9, asyn_113-127_126A; experiment: Ala-scan peptide ELISA, row G, run 2
[25] = target: T13, biotinylated human alpha-synuclein; experiment: Ala-scan peptide ELISA, row G, run 2
[26] = target: T15, asyn_113-127_124G; experiment: Ala-scan peptide ELISA, row G, run 2
[27] = target: T18, asyn_113-127; experiment: Ala-scan peptide ELISA, row G, run 2
[28] = target: T1, asyn_113-127_117A; experiment: Ala-scan peptide ELISA, row A, run 1
[29] = target: T2, asyn_113-127_125A; experiment: Ala-scan peptide ELISA, row A, run 1
[30] = target: T3, asyn_113-127_127A; experiment: Ala-scan peptide ELISA, row A, run 1
[31] = target: T5, asyn_113-127_115A; experiment: Ala-scan peptide ELISA, row A, run 1
[32] = target: T8, asyn_113-127_120A; experiment: Ala-scan peptide ELISA, row A, run 1
[33] = target: T12, asyn_113-127_113A; experiment: Ala-scan peptide ELISA, row A, run 1
[34] = target: T16, asyn_113-127_123A; experiment: Ala-scan peptide ELISA, row A, run 1
[35] = target: T17, asyn_113-127_116A; experiment: Ala-scan peptide ELISA, row A, run 1
[36] = target: T18, asyn_113-127; experiment: Ala-scan peptide ELISA, row A, run 1

- A450 [1]: 0.102 OD
- A450 [2]: 0.046 OD
- A450 [3]: 0.094 OD
- A450 [4]: 0.044 OD
- A450 [5]: 0.058 OD
- A450 [6]: 0.091 OD
- A450 [7]: 0.049 OD
- A450 [8]: 0.08 OD
- A450 [9]: 0.098 OD
- A450 [10]: 0.083 OD
- A450 [11]: 0.048 OD
- A450 [12]: 0.095 OD
- A450 [13]: 0.141 OD
- A450 [14]: 0.107 OD
- A450 [15]: 0.099 OD
- A450 [16]: 0.093 OD
- A450 [17]: 0.098 OD
- A450 [18]: 0.089 OD
- A450 [19]: 0.049 OD
- A450 [20]: 0.048 OD
- A450 [21]: 0.057 OD
- A450 [22]: 0.097 OD
- A450 [23]: 0.072 OD
- A450 [24]: 0.101 OD
- A450 [25]: 0.152 OD
- A450 [26]: 0.095 OD
- A450 [27]: 0.089 OD
- A450 [28]: 0.55 OD
- A450 [29]: 0.053 OD
- A450 [30]: 0.338 OD
- A450 [31]: 0.502 OD
- A450 [32]: 0.414 OD
- A450 [33]: 0.529 OD
- A450 [34]: 0.533 OD
- A450 [35]: 0.524 OD
- A450 [36]: 0.545 OD
B1: 20H4 (antibody, rat IgG2b, V domains shown)
VH: AVQLVESGGGLVQPKESLKISCAASGFTFSNAAMYWVRQAPGKGLELLARIRTKPNNYATYHADSVKGRFTISRDDSQSMVYLHMGNLKTEDTAMYYCTADMATGDYWGPGVMVTVSS
VL: DIQMTQSPPVLSVSVGDRVTLSCKASQNINKNLDWYQQKHGEAPKPLIYSTNNLQTGVPSRFSGSGSGTDYTLTISSLQPEDVATYYCYQYKSAWTFGGGTKLELR
notes: also called clone 20H4; rat 20H4
